# From US20240425606A1, “ANTI-IL-11RA ANTIBODIES” (Lassen Therapeutics 1, Inc., priority 2021, published 2024)
# T1: human IL-11Rα (human, UniProt Q14626 23-363, limits assumed)
# T1 construct: Protein coated on ELISA plates and used in solution for BLI; also called hIL-11Rα; hIL-11R
# T1 sequence: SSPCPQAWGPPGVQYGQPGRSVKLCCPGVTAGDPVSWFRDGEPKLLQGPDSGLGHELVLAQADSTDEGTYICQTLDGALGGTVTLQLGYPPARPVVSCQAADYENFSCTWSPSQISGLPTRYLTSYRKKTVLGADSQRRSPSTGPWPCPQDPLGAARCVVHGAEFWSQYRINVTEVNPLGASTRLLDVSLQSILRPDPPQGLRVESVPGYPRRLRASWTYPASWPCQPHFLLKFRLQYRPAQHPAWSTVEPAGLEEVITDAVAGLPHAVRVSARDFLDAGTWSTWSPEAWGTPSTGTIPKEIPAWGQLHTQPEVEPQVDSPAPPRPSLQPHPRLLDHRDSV
# T2: IL-11R on STAT3 Reporter (Luciferase)-HEK293 cells (UniProt Q14626 23-422)
# T2 sequence (looked up): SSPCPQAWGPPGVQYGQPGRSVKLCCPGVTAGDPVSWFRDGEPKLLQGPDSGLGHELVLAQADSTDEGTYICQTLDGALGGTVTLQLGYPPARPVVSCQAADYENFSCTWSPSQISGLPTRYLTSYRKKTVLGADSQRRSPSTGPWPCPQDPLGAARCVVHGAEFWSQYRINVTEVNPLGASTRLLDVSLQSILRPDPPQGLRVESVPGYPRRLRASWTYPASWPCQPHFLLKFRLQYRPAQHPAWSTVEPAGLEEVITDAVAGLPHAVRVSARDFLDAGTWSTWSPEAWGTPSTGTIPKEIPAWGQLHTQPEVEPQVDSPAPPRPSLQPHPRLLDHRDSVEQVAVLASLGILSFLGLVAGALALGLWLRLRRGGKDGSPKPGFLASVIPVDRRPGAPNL
# T3: hIL-11Rα (Homo sapiens, UniProt Q14626)
# T3 sequence (Q14626 23-422): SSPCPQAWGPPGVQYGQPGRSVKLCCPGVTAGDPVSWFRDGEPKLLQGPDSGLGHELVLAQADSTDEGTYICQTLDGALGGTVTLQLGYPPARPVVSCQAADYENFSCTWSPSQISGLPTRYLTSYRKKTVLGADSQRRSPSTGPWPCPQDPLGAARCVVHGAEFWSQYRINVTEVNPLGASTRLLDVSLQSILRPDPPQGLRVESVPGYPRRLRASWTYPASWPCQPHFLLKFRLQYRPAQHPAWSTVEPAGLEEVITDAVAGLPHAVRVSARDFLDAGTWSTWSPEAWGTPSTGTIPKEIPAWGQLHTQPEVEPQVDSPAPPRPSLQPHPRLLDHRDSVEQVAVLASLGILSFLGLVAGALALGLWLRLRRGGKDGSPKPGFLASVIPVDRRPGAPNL
# How the values were obtained:
# [1] = target: T1, human IL-11Rα; assay: competitive ELISA, IL-11R coated on plate; competitor: biotinylated TS7 (0.1 µg/mL)
# Experimental: Relative binding activity of the antibodies was tested by competitive ELISA using biotinylated mAbs 8E2 or TS7. Antibodies 8E2 and TS7 were biotinylated using sulfo-NHS Biotin (Thermo Fisher) per the manufacturer's instructions. IL-11R was coated onto ELISA plates (Nunc, MaxiSorp) at 2 μg/mL in PBS, and plates were blocked with 2% BSA in PBS. After washing the plate with water, antibodies to be tested were titrated across the plate in a final volume of 90 μL followed by addition of 10 μL of biotinylated 8E2 or biotinylated TS7, as indicated in Table E1 (0.1 μg/mL final concentration) to each well. Plates were incubated for 2 hours on a plate-shaker, followed by washing and addition of 100 μL/well of streptavidin-HRP (Jackson ImmunoResearch, 1/1000 dilution). After a further 1 hour incubation, plates were washed, developed with Ultra-TMB HRP substrate (Thermo Fisher), and stopped by the addition of 50 μL/well of 2 M sulfuric acid. Plates were read at 450 nm on an iD5 plate reader (Molecular Devices).
# [2] = target: T2, IL-11R on STAT3 Reporter …; assay: cell-based or functional assay
# [3] = target: T1, human IL-11Rα; assay: BLI (Octet RED96e), mAb on protein G biosensors, hIL-11Rα in solution
# Experimental: (§1) Association was carried out in the presence of a 2-fold dilution series of hIL-11Rα and was allowed to proceed for 120 seconds; dissociation was measured for 300 to 1200 seconds.
# [4] = target: T3, hIL-11Rα; assay: Kinetic binding analysis by biolayer interferometry (protein G biosensors, Octet RED96e); details: protein G biosensors
# Experimental: as §1
# [5] = test system: IL-11 signaling in STAT3 Reporter (Luciferase)—HEK293 cell line; assay: Cell-based STAT3 reporter (luciferase) assay for inhibiting IL-11 signaling; parameters: species or system human; details: compared with TS7 and 8E2
# Experimental: Further testing of the lead mAbs was carried out using a cell-based reporter assay. IL-11 is reported to signal through the STAT3 and ERK pathways. Therefore, a STAT3 reporter cell line in which firefly luciferase gene expression is driven by STAT3 response elements located upstream of a minimal TATA promoter was selected to analyze mAb functional activity. In these cells, IL-11 can activate the endogenous STAT3 allowing it to bind to the STAT3 response elements, inducing transcription of the luciferase reporter gene and resulting in readily detectable luciferase expression. Antibodies to IL-11R which block IL-11 signaling should inhibit expression of IL-11 driven luciferase in these cells.
# The STAT3 Reporter (Luciferase)—HEK293 cell line (BPS Bioscience, catalog #79800-P) was grown, passaged, and assayed as per manufacturer's protocols. Cells were added at 25,000 cells per well in a 96-well microtiter dish and incubated at 37° C. for 30-45 min. in 5% CO2 humidified air. Anti-IL-11R mAbs were added as a 3-fold dilution series in duplicate columns or rows, and plates were returned to the incubator for an additional 1 h at 37° C. after which 40 ng/mL IL-11 was added to each well to initiate the signal transduction cascade and luciferase production. Plates were incubated for 18-24 hours at 37° C. and luciferase was detected using a One-Step Luciferase Assay System (BPS Bioscience, cat. no. 60690-1) as per manufacturer's instructions.
IC50 [1],"IC50, STAT3 luciferase reporter assay (HEK293), inhibiting IL-11, Assay 1 [2]","IC50, STAT3 luciferase reporter assay (HEK293), inhibiting IL-11, Mean [2]",Kd [3],koff [3],kon [3],ka ([4]; association 120 seconds),kd ([4]; dissociation 300 to 1200 seconds),"IC50, STAT3 luciferase reporter assay (HEK293), inhibiting IL-11, Assay 2 [2]",Molecule,relative potency at inhibiting IL-11 signaling (in words) [5]
6.9 µg/mL,1 µg/mL,1 µg/mL,< 1 pM,< 1e-07 s⁻¹,63500 M⁻¹ s⁻¹,–,–,–,"mAb7 (antibody, V domains shown, Expressed as human IgG4 (S228P EU)) VH: EVQLLESGGGLVQPGGSLRLSCAASGFTFSNYAMSWVRQAPGKGLEWVSSIVPYGDLTQYADSVKGRFTISRDNSKNTLYLQMNSLRAEDTAVYYCAKGPGWGSFDLWGRGTLVTVSS VL: DIQMTQSPSSLSASVGDRVTITCQASQDINNYLNWYQQKPGKAPKLLIYDASNLQTGVPSRFSGSGSGTDFTFTISSLQPEDIATYYCQQHESQSPTFGPGTKVDIK",–
2 µg/mL,0.39 µg/mL,0.34 µg/mL,< 1 pM,< 1e-07 s⁻¹,33700 M⁻¹ s⁻¹,–,–,0.28 µg/mL,"mAb14 (antibody, V domains shown, Expressed as human IgG4 (S228P EU)) VH: EVQLLESGGGLVQPGGSLRLSCAASGFTFSWYSMTWVRQAPGKGLEWVSSIVPYGDLTQYAESVKGRFTISRDNSKNTLYLQMNSLRAEDTAVYYCAKGPGWGSFDLWGRGTLVTVSS VL: DIQMTQSPSSLSASVGDRVTITCQASQDINNYLNWYQQKPGKAPKLLIYDASNLQTGVPSRFSGSGSGTDFTFTISSLQPEDIATYYCQQHESQSPTFGPGTKVDIK",–
6.2 µg/mL,0.67 µg/mL,0.96 µg/mL,< 1 pM,< 1e-07 s⁻¹,65100 M⁻¹ s⁻¹,–,–,1.25 µg/mL,"mAb8 (antibody, V domains shown, Expressed as human IgG4 (S228P EU)) VH: EVQLLESGGGLVQPGGSLRLSCAASGFTFSSYAMSWVRQAPGKGLEWVSSIVPYGDLTQYADSVKGRFTISRDNSKNTLYLQMNSLRAEDTAVYYCAKGPGWGSFDLWGRGTLVTVSS VL: DIQMTQSPSSLSASVGDRVTITCQASQDINNYLNWYQQKPGKAPKLLIYDASNLQTGVPSRFSGSGSGTDFTFTISSLQPEDIATYYCQQHESQSPTFGPGTKVDIK",–
> 15 µg/mL,2 µg/mL,2 µg/mL,496 pM,0.000416 s⁻¹,840000 M⁻¹ s⁻¹,–,–,–,"mAb10 (antibody, V domains shown, Expressed as human IgG4 (S228P EU)) VH: EVQLLESGGGLVQPGGSLRLSCAASGFTFSWYSMTWVRQAPGKGLEWVSSIVAYGDLTQYADSVKGRFTISRDNSKNTLYLQMNSLRAEDTAVYYCAKGPGWGSFDLWGRGTLVTVSS VL: DIQMTQSPSSLSASVGDRVTITCQASQDINNYLNWYQQKPGKAPKLLIYDASNLQTGVPSRFSGSGSGTDFTFTISSLQPEDIATYYCQQHESQSPTFGPGTKVDIK",–

# Second part, the molecule before the results:
Molecule,IC50 [1],"IC50, STAT3 luciferase reporter assay (HEK293), inhibiting IL-11, Assay 1 [2]","IC50, STAT3 luciferase reporter assay (HEK293), inhibiting IL-11, Mean [2]",Kd [3],koff [3],kon [3],ka ([4]; association 120 seconds),kd ([4]; dissociation 300 to 1200 seconds),"IC50, STAT3 luciferase reporter assay (HEK293), inhibiting IL-11, Assay 2 [2]",relative potency at inhibiting IL-11 signaling (in words) [5]
"mAb11: anti-IL-11Rα antibody; VH SEQ ID NO: 213, VL SEQ ID NO: 214; human IgG4 (S228P), kappa light chain (antibody, V domains shown, human IgG4 S228P and kappa constant regions; mAb11 VH Chain; mAb11 VL Chain, anti-IL-11Rα antibody; human IgG4 (S228P), kappa light chain) VH: EVQLLESGGGLVQPGGSLRLSCAASGFTFSWYSMTWVRQAPGKGLEWVSSIVDYGDLTQYADSVKGRFTISRDNSKNTLYLQMNSLRAEDTAVYYCAKGPGWGSFDLWGRGTLVTVSS VL: DIQMTQSPSSLSASVGDRVTITCQASQDINNYLNWYQQKPGKAPKLLIYDASNLQTGVPSRFSGSGSGTDFTFTISSLQPEDIATYYCQQHESQSPTFGPGTKVDIK",–,–,–,–,–,–,32900 M⁻¹ s⁻¹,0.0181 s⁻¹,–,less potent than TS7
"mAb9 (antibody, V domains shown, Expressed as human IgG4 (S228P EU)) VH: EVQLLESGGGLVQPGGSLRLSCAASGFTFSWYSMTWVRQAPGKGLEWVSGIVPYGDLTQYADSVKGRFTISRDNSKNTLYLQMNSLRAEDTAVYYCAKGPGWGSFDLWGRGTLVTVSS VL: DIQMTQSPSSLSASVGDRVTITCQASQDINNYLNWYQQKPGKAPKLLIYDASNLQTGVPSRFSGSGSGTDFTFTISSLQPEDIATYYCQQHESQSPTFGPGTKVDIK",2.3 µg/mL,0.11 µg/mL,0.1 µg/mL,< 1 pM,< 1e-07 s⁻¹,62200 M⁻¹ s⁻¹,–,–,0.1 µg/mL,–
"mAb11 (antibody, V domains shown, Expressed as human IgG4 (S228P EU)) VH: EVQLLESGGGLVQPGGSLRLSCAASGFTFSWYSMTWVRQAPGKGLEWVSSIVDYGDLTQYADSVKGRFTISRDNSKNTLYLQMNSLRAEDTAVYYCAKGPGWGSFDLWGRGTLVTVSS VL: DIQMTQSPSSLSASVGDRVTITCQASQDINNYLNWYQQKPGKAPKLLIYDASNLQTGVPSRFSGSGSGTDFTFTISSLQPEDIATYYCQQHESQSPTFGPGTKVDIK",> 15 µg/mL,> 100 µg/mL,> 100 µg/mL,550000 pM,0.0181 s⁻¹,32900 M⁻¹ s⁻¹,–,–,–,–
"mAb13 (antibody, V domains shown, Expressed as human IgG4 (S228P EU)) VH: EVQLLESGGGLVQPGGSLRLSCAASGFTFSWYSMTWVRQAPGKGLEWVSSIVPYGDLTQYADSVKGRFTISRDNSKNTLYLQMNSLRAEDTAVYYCAKPEDWGRFDLWGRGTLVTVSS VL: DIQMTQSPSSLSASVGDRVTITCQASQDINNYLNWYQQKPGKAPKLLIYDASNLQTGVPSRFSGSGSGTDFTFTISSLQPEDIATYYCQQHESQSPTFGPGTKVDIK",2.3 µg/mL,0.05 µg/mL,0.12 µg/mL,< 1 pM,< 1e-07 s⁻¹,66700 M⁻¹ s⁻¹,–,–,0.19 µg/mL,–
"mAb12 (antibody, V domains shown, Expressed as human IgG4 (S228P EU)) VH: EVQLLESGGGLVQPGGSLRLSCAASGFTFSWYSMTWVRQAPGKGLEWVSSIVPYGDLTQYADSVKGRFTISRDNSKNTLYLQMNSLRAEDTAVYYCAKGPGWYSFDLWGRGTLVTVSS VL: DIQMTQSPSSLSASVGDRVTITCQASQDINNYLNWYQQKPGKAPKLLIYDASNLQTGVPSRFSGSGSGTDFTFTISSLQPEDIATYYCQQHESQSPTFGPGTKVDIK",3.6 µg/mL,0.42 µg/mL,0.41 µg/mL,< 1 pM,< 1e-07 s⁻¹,58100 M⁻¹ s⁻¹,–,–,0.39 µg/mL,–
